Test results: PMC6640694 (Antibodies, 2019)

B1: tOX40.15 (S-S-Sp-6) (antibody, V domains shown)
VH: QVQLVESGGGVVQPGRSLRLSCAASGFTFSSYGMHWVRQAPGKGLEWVAIIWYDGSNKYYADSVKGRFTISRDNSKNTLYLQMNSLRAEDTAVYFCAREGDYYGSGSYYPLDYYYYGMDVWGQGTTVTVSS
VL: DIQLTQSPSFLSASVGDRVTITCRASQGISSYLAWYQQKPGKAPKLLIYAASTLQSGVPSRFSGSGSGTEFTLTISSLQPEDFATYYCQQLNSFPRTFGQGTKVEIK
B2: tOX40.19 (S-CL-LN-4) (antibody, V domains shown)
VH: QVQLVESGGGVVQPGRSLRLSCAASGFTFSTYGMHWVRQAPGKGLEWVAVIWYDGSNKYYADSVKGRFTISRDNSKNTLYLQMNSLRAEDTAVYYCARTHYDILTGPNWFDPWGQGTLVTVSS
VL: DIQMTQSPSSLSASVGDRVTITCRASQDIRNDLGWYQQKPGKAPKRLIYAASSLQSGVPSRFSGSGSGTEFTLTISSLQPEDFATYYCLQHNSYPFTFGPGTKVDIK
B3: tOX40.39 (S-CL-LN-1) (antibody, V domains shown)
VH: EVQLVESGGGLVQPGGSLRLSCAASGFTFSNYAMTWVRQAPGKGLEWVSTISGSGGSTYYADSVKGRFTISRDNSKNTLYLQMNSLRAEDTAVYYCAKADCGDNCYSFFDYWGQGTLVTVSS
VL: DIQMTQSPSSLSASVGDRVTITCRASQGISNWLAWYQQKPEKAPKSLIYAASSLQSGVPSRFSGSGSGTDFTLTISSLQPEDFATYYCQQYNSYPPTFGRGTKVEIK
B4: tOX40.37 (S-S-Sp-10/S-CL-Sp-1) (antibody, V domains shown)
VH: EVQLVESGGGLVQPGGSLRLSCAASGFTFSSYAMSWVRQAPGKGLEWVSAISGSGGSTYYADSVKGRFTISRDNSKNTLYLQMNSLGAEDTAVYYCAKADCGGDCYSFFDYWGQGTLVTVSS
VL: DIQMTQSPSSLSASVGDRVTITCRASQGISSWLAWYQQKPEKAPKSLIYAASSLQSGVPSRFSGSGSGTDFTLTISSLQPEDFATYYCQQYNSYPPTFGQGTKVEIK
B5: tOX40.41 (S-CL-LN-9) (antibody, V domains shown)
VH: QVQLQESGPGLVKPSETLSLTCTVSGGSISSYYWSWIRQPPGKGLEWIGYIYYSGSTNYNPSLKSRVTISVDTSKNQFSLKLSSVTAADTAVYYCARYYDILTVWDWFDPWGQGTLVTVSS
VL: DIQMTQSPSSLSASVGDRVTITCRASQGISSWLAWYQQKPGKAPKSLIYAASSLQSGVPSRFSGSGSGTDFTLTISSLQPEDFATYYCQQYNSYPITFGQGTRLEIK
B6: tOX40.22 (S-CL-LN-5) (antibody, V domains shown)
VH: QVQLVESGGGVVQPGRSLRLSCAASGFTFSNYGMHWVRQAPGKGLEWVAVIWLDGSNKYYADSVKGRFTISRDNSKNTLYLQMNSLRAEDTAVYYCARAAAGSLYYGMDVWGQGTTVTVSS
VL: DIQMTQSPSSLSASVGDRVTITCRASQGINTWLAWYQQKPEKAPKSLIYAASSLQSGVPSRFSGSGSGTDFTLTISSLQPEDFATYYCQQYYSYPWTFGQGTKVEIR
B7: tOX40.4 (S-S-Sp-1/S-CL-Sp-2) (antibody, V domains shown)
VH: QVQLVQSGAEVKKPGASVKVSCKVSGYTLTELSMHWVRQAPGKGLEWMGGFDPKDGETIYAQKFQGRVTMTEDTSTDTAYMELSSLRSEDTAVYYCSTGYCSTTSCGGFDPWGQGTLVTVSS
VL: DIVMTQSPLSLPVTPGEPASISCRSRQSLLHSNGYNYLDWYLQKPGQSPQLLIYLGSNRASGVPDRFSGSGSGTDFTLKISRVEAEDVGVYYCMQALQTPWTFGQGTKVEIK
B8: tOX40.21 (S-CL-LN-2) (antibody, V domains shown)
VH: QVQLVESGGGVVQPGRSLRLSCAASGFTFSNYGMHWVRQAPGKGLEWVAVIWYDGSNKYYADSVKGRFTISRDNSKNTLYLQMNSLRAEDTAVYYCARNGDSYFDYWGQGTLVTVSS
VL: not shown
B9: tOX40.31 (S-CL-LN-11) (antibody, V domains shown)
VH: QVQLQESGPGLVKPSETLSLTCTVSGDSISFYYWSWIRQPPGKGLEWIGCIYYSGSTNYNPSLKSRVTISVDTSKNQFSLKLNSVTAADTAVYYCARRLWFGVFDYWGQGTLVPVSS
VL: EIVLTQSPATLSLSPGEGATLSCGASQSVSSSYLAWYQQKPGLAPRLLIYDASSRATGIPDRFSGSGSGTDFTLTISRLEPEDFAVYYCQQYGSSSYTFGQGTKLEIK
B10: tOX40.40 (S-CL-LN-7) (antibody, V domains shown)
VH: QVQLVESGGDVVQPGMSLRLSCAASGFTFSDYGMHWVRQAPGKGLEWVAVIWYDGSNKYYEDSVKGRFTISRDNSKNTLYLQMNSLRAEDTAVYYCTRAGFGESGYGMDVWGQGTTVTVSS
VL: DIQMTQSPSSLSASVGDRVTITCRASQGISNYLAWYQQKPGKVPKLLIYAASTLQSGVPSRFSGSGSGTDFTLTISSLQPEDVATYYCQKYHSAPWTFGQGTKVEIK
B11: tOX40.23 (S-CL-LN-8) (antibody, V domains shown)
VH: QVQLVESGGGVVQPGRSLRLSCAASGFTFSNYGMHWVRQAPGKGLEWVAVIWYDGSKKYYADSVKGRFTISRDNSKNTLYLQMNSLRAEDTAVYYCARAGFGESGYGMDVWGQGTTVTVSS
VL: DIQMTQSPSSLSASVGDRVTFTCRASQGINNYLAWYQQKPGKVPKLLIYAASTLQSGVPSRFSGSGSGTDFTLTISSLQPEDVATYYCQKYYSAPWTFGQGTKVEVK
B12: tOX40.35 (S-S-Sp-3) (antibody, V domains shown)
VH: QVQLVQSGAEVKKPGASVKVSCKASGYTFTSYGITWVRQAPGQGLEWVGWISAYNGNTNYAQKLQGRVTMTTDTSTSTAYMELRSLRSDDTAVYYCARDFAGGSYYFDYWGQGTLVTVSS
VL: not shown
B13: tOX40.24 (antibody, V domains shown)
VH: QVQLVESGGGVVQPGRSLRLSCAASGFTFRSYGMHWVRQAPGKGLEWLAIIWYDGSNKYYADSVKGRLTISRDNSKNTLYLQMNSLRAEDTAVYYCARDTQVAEAGFPHHHYYGMDVWGQGTTVTVSS
VL: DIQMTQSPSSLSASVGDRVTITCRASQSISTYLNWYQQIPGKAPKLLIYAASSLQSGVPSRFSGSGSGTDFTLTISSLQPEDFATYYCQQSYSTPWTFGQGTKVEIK
notes: human IgHG1 constant domains; kappa; source: ExpiCHO, transiently transfected; quantified in the supernatants
B14: tOX40.63 (antibody, V domains shown)
VH: QVQLVQSGAEVKKPGASVKVSCKVSGYTLTELSMHWVRQAPGKGLEWMGGFDPEDGETIYAQKFQGRVTMTEDTSTDTAYMELSSLRSEDTAVYYCAANWGSDYYYGMDVWGQGTTVTVSS
VL: AIQLTQSPSSLSASVGDRVTITCRASQGISSALAWYQQKPGKAPKLLIYDASSLESGVPSRFSGSGSGTDFTLTISSLQPEDFATYYCQQFNNYPRTFGQGTKVEIK
notes: as for B13

molecular target: T1, recombinant His-tagged human OX40 extracellular domain (Homo sapiens, UniProt P43489); assay: not given; conditions: not given
T1 sequence (P43489 29-214): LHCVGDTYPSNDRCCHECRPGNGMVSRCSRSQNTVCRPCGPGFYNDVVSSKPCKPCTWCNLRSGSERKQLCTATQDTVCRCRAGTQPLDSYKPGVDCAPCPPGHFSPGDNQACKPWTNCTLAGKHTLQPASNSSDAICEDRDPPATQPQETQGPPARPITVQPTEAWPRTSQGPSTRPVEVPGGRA

B1 and B2 are within 1.5-fold of each other in Kd: 6 nM for the first, 7.7 nM for the second.

Going from B3 to B4, the Kd falls from 90 nM to 12.5 nM (7.2-fold). The second binds more tightly here.

First: B5
Second: B6
The Kd of the first is 8-fold higher: 58.4 nM for the first, 7.3 nM for the second. The second binds more tightly here.

B7 and B8 are within 1.5-fold of each other in Kd: 9 nM for the first, 7 nM for the second.

Compared with B9, B10 is 6.7-fold higher in Kd: 22.4 nM for the first, 151 nM for the second.

First: B11
Second: B12
The Kd of the first is 1.9-fold higher: 5.2 nM for the first, 2.7 nM for the second. The second binds more tightly here.

molecular target: T2, human OX40 expressed on Flp-In CHO cells (Homo sapiens, UniProt P43489); assay: cell-based or functional assay; conditions: not given
T2 sequence (P43489 29-277): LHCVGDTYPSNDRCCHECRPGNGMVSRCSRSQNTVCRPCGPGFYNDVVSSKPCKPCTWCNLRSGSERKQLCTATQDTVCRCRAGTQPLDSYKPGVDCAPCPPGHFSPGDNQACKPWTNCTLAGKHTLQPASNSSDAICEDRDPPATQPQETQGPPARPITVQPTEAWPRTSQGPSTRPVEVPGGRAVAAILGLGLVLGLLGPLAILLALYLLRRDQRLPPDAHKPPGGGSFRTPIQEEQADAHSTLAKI

With B13 the “Promega In Vitro Assay EC50 (Agonist): luminescence of OX40-expressing Jurkat cells with FcγRIIB/CHO-K1 cells” value was 0.024 µg/mL.

molecular target: T1, recombinant His-tagged human OX40 …; assay: BLI; Octet Red96; 5 μg/mL antibody loaded onto Protein A biosensor, dipped into His-tagged OX40 extracellular domain at 200, 100 and 50 nM or 1600, 800 and 400 nM; 1:1 binding model, global fit; conditions: one partner purified

Work on B13 yielded a Kd of 22.9 nM.

molecular target: T2, human OX40 expressed on Flp-In CHO cells; assay: flow cytometry on cells; one million CHO cells (1:1 mix of OX40-expressing and PD-1-expressing negative control cells) stained with 1 μg mAb in 100 μL MACS Buffer (DPBS, 0.5% BSA, 2 mM EDTA), 30 min, 4 °C; detected with anti-human IgG Fc-PE; conditions: partners not purified

B14: no binding (tested: 1 μg of anti-OX40 mAb in 100 μL).
